Experimental data reported in US20220177604A1 (ARGENX, published 2022).
Changes are numbered by the printed parent chain.

B1: 18B9_VH_S35H_VL_Y49H (antibody, V domains shown)
VH: QVQLVESGGGLVQPGGSLRLSCAASGFTFSSYVMHWVRQAPGKGLEWVSSIYSDGSHTYYADSVKGRFTISRDNAKNTLYLQMNSLKSEDTAVYYCAKNLEHYSGSYYYTDPRYDYWGQGTQVTVSS
VL: SSALTQPSALSVTLGQTAKITCQGGSLGSSYVHWYQQKPGQAPVLVIHDGDSRPSGIPERFSGSSSGGTATLTISGAQAEDEDDYYCQSADSSGNAVFGGGTHLTVL
B2: VH18B9_S35H (antibody, V domains shown)
VH: B1 VH
VL: B1 VL with H48Y
B3: OMA VH15 - VL3 (antibody, V domains shown)
VH: EVQLVESGGGLVQPGGSLRLSCAVSGYSITSGHRWEWIRQAPGKGLEWVASIHYDGSTNYNPSVKGRITISRDDSKNTFYLQMNSLRAEDTAVYYCARATHYFGHWHFAVWGQGTLVTVSS
VL: DIQLTQSPSSLSASVGDRVTITCRASQSVDYDGDSYMNWYQQKPGKAPKLLIEWGSYLRSGVPSRFSGSGSGTDFTLTISSLQPEDFATYYCQQNAEDPYTFGQGTKVEIK
B4: OMA VH15 - VL3S31H (antibody, V domains shown)
VH: B3 VH
VL: B3 VL with S35H
B5: OmaVH15G55H - VL3 (antibody, V domains shown)
VH: B3 VH with G56H
VL: B3 VL
B6: OmaVH15G55H - VL3D28H (antibody, V domains shown)
VH: B3 VH with G56H
VL: B3 VL with D32H
notes: also called OmaVH15G55H VL3D25H
B7: OMA VH15 - VL3D28H (antibody, V domains shown)
VH: B3 VH
VL: B3 VL with D32H
notes: also called OMA VH15 VL3D25H
B8: OmaVH15G55H - VL3S31H (antibody, V domains shown)
VH: B3 VH with G56H
VL: B3 VL with S35H
B9: OMA VH15 - VL3D28HS31H (antibody, V domains shown)
VH: B3 VH
VL: B3 VL with D32H, S35H
B10: Oma VH15W100b - VL3 (antibody, V domains shown)
VH: B3 VH with W106H
VL: B3 VL
B11: OmaVH15G55HW100b - VL3D28H (antibody, V domains shown)
VH: B3 VH with G56H, W106H
VL: B3 VL with D32H
notes: also called OmaVH15G55HW100b VL3D25H
B12: OmaVH15G55H - VL3D28HS31H (antibody, V domains shown)
VH: B3 VH with G56H
VL: B3 VL with D32H, S35H
B13: OmaVH15G55HW100b - VL3 (antibody, V domains shown)
VH: B3 VH with G56H, W106H
VL: B3 VL
B14: 18E2 human IgG1 mAb (antibody, V domains shown)
VH: QLQLVESGGGLVQPGGSLRLSCAASGFTFSSYVMSWVRQAPGKGLEWVSSIYHDGSHTYYADFVKGRFTISRDNAKNTLYLQMNSLKSEDTAVYYCASGTSYSGSYYYTDPFFGSWGQGTQVTVSS
VL: NFMLTQPSALSVTLGQTARITCQGDRLGSRYIYWYQQKPPQAPVLVIHDDDRRPSGIPERFSGSSSGGTATLTISGAQAEDDGDYYCQSADSSGNPVFGGGTHLTVL
notes: also called clone 18E2
B15: VH18E2_S35H (antibody, V domains shown)
VH: B14 VH with S35H
VL: B14 VL
B16: VL18E2_Y34H (antibody, V domains shown)
VH: B14 VH
VL: B14 VL with Y33H
B17: VH3D1_S35H (antibody, V domains shown)
VH: QLQVVESGGGLVQPGGSLRLSCAASGFTFSSYYMHWVRQAPGKGLEWVSSIYSDGRGSKTFYADSVKGRFTISRDNAKNTLYLQMNSLKSEDTAVYFCAKDLLVAARGSMDYWGQGTQVTVSS
VL: NFMLTQPSAVSVSLEQTARITCQGGTLGSYGAHWYQQKPGQAPVLLIYGDNSRPSGIPERFSGTRSGGTATLTISGAQAEDEADYYCQSFDYSGNAVFGGGTHLTVL
B18: VL3D1_Y49H VL3D1_Q89H (antibody, V domains shown)
VH: B17 VH with H35S
VL: B17 VL with Y48H, Q88H

Experiments:
[1] = target: T1, human immunoglobulin E (hIgE) (human, UniProt P01854-1 1-428); assay: SPR competition, hIgE over hFcεRIα chip, pH 5.5
T1 construct: also called human IgE; Native IgE (Abcam)
T1 sequence (P01854 whole entry): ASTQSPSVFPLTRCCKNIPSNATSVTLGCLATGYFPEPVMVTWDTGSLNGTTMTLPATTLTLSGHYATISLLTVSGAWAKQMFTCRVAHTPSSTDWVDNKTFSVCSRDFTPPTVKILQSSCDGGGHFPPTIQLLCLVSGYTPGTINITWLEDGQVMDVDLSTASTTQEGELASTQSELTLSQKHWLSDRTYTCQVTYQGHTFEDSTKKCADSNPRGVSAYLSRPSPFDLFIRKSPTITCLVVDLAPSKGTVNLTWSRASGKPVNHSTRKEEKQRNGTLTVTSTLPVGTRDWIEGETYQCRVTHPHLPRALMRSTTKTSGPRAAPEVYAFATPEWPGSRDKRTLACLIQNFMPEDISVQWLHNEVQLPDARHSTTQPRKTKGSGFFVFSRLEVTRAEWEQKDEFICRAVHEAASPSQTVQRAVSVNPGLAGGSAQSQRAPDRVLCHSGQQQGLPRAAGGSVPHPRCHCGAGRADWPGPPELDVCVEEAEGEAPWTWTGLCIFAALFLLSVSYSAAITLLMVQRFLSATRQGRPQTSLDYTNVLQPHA
Procedure: (§1) The assay was performed in HBS-EP pH7.4 or HBS-EP pH 5.5. Raw data were analyzed via BIA evaluation software with a blank subtraction (2-1). […] The IC50 values of each compound were calculated with a non-linear regression (log(agonist) vs. response Variable slope (four parameters)).
(§2) Raw data were analyzed via BIA evaluation software with a blank subtraction (2-1). […] The IC50 values of each compound, calculated with a non-linear regression (log(agonist) vs. response Variable slope (four parameters)).

[2] = target: T1, human immunoglobulin E (hIgE); assay: SPR competition, hIgE over hFcεRIα chip, pH 7.4
Procedure: as §1, §2

[3] = target: T2, recombinant Motavizumab human IgE (rMota-hIgE) (human, UniProt P01854 1-428); assay: hIgE binding ELISA
T2 construct: also called Recombinant IgE (argenx)
T2 sequence (P01854 other isoform, or with tags, fused parts or gaps limits assumed, form in doubt): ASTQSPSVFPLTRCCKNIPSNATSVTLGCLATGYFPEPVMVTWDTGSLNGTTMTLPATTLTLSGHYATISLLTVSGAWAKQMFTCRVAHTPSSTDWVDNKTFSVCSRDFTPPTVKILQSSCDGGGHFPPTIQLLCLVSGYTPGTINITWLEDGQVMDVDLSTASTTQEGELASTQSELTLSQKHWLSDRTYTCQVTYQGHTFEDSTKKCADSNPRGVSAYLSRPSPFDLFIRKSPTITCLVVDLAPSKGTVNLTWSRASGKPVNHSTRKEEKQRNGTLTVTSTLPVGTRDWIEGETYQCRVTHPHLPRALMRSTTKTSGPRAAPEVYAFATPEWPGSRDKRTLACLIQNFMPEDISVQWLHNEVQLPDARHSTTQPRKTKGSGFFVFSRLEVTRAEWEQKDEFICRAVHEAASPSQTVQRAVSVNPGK
Procedure: (§3) Briefly a Maxisorp plate was coated with recombinant human respiratory syncytial virus protein F (RSV-F) (0.5 μg/mL), then blocked with PBS with 3% BSA and 0.05% Tween. […] After several washing steps at pH 7.4 or pH 5.5, detection of the bound mAbs was carried out with an anti-human Fc-HRP antibody.

[4] = target: T1, human immunoglobulin E (hIgE); assay: SPR (Biacore), pH 6.0
[5] = target: T1, human immunoglobulin E (hIgE); assay: SPR (Biacore), pH 7.4
[6] = target: T2, recombinant Motavizumab human IgE …; assay: hIgE binding ELISA, pH 5.5
Procedure: as §3

[7] = target: T2, recombinant Motavizumab human IgE …; assay: hIgE binding ELISA, pH 7.4
Procedure: as §3

[8] = target: T1, human immunoglobulin E (hIgE); assay: competition ELISA, hIgE to hFcεRIα
[9] = target: T1, human immunoglobulin E (hIgE); assay: SPR (Biacore)
[10] = target: T1, human immunoglobulin E (hIgE); assay: competition ELISA
Procedure: (§4) The IC50 values of each compound were calculated with a non-linear regression (log(agonist) vs. response Variable slope (four parameters)).

[11] = target: T1, human immunoglobulin E (hIgE); assay: competition ELISA, biotin-hIgE to coated hFcεRIα, pH 6
Procedure: as §4

[12] = target: T1, human immunoglobulin E (hIgE); assay: competition ELISA, biotin-hIgE to coated hFcεRIα, pH 7.4
Procedure: as §4

| Binder | IC50 [1] [µg/mL] | IC50 [2] [µg/mL] | Ratio EC50 pH 5.5/7.4 [3] | Ratio EC50 pH 7.4/5.5 [3] | Kd [4] [nM] | koff [4] [s⁻¹] | kon [4] [M⁻¹ s⁻¹] | Kd [5] [nM] | koff [5] [s⁻¹] | kon [5] [M⁻¹ s⁻¹] | EC50 [6] [µg/mL] | EC50 [7] [µg/mL] | IC50 [8] [nM] | Ratio pH 7.4/pH6.0 (of KD) [9] | Ratio pH 6/7.4 (IC50) [10] | IC50 [11] [nM] | IC50 [12] [nM] |
| --- | --- | --- | --- | --- | --- | --- | --- | --- | --- | --- | --- | --- | --- | --- | --- | --- | --- |
| B1 | 24.6 | 26.3 | – | – | – | – | – | – | – | – | – | – | – | – | – | – | – |
| B2 | 22.3 | 21.7 | – | – | – | – | – | – | – | – | – | – | – | – | – | – | – |
| B3 | – | – | 1.1 | 0.93 | 1.03 | 0.00029 | 281000 | < 0.0769 | < 1e-05 | 130000 | 0.0217 | 0.0202 | 0.0803 | – | – | – | – |
| B4 | – | – | 0.9 | 1.12 | 8.93 | 0.00228 | 261000 | 0.534 | 0.000166 | 310000 | 0.0179 | 0.02 | 0.206 | 16.7 | – | – | – |
| B5 | – | – | 0.9 | 1.16 | 1.8 | 0.000524 | 291000 | 0.326 | 0.000105 | 323000 | 0.022 | 0.0255 | 0.0753 | 5.6 | – | – | – |
| B6 | – | – | 0.9 | 1.05 | 4.39 | 0.00117 | 265000 | 0.728 | 0.000206 | 283000 | 0.0251 | 0.0264 | 0.187 | 6 | – | – | – |
| B7 | – | – | 1 | 0.99 | 2.62 | 0.000736 | 281000 | 0.168 | 4.41e-05 | 264000 | 0.0164 | 0.0163 | 0.137 | 15.6 | – | – | – |
| B8 | – | – | 1.5 | 0.67 | 9.07 | 0.00297 | 329000 | 1.33 | 0.000402 | 301000 | 0.023 | 0.0153 | 0.485 | 6.8 | – | – | – |
| B9 | – | – | 1.2 | 0.86 | 12.8 | 0.00398 | 310000 | 1.1 | 0.000334 | 302000 | 0.0178 | 0.0153 | 0.722 | 11.7 | – | – | – |
| B10 | – | – | 1.9 | 0.53 | 29.8 | 0.00875 | 294000 | 2.93 | 0.00103 | 351000 | 0.0326 | 0.0174 | 1.4 | 10.2 | – | – | – |
| B11 | – | – | 9.6 | 0.1 | 136 | 0.0648 | 123000 | 15.2 | 0.00303 | 200000 | 0.13 | 0.0135 | 172 | 9 | – | – | – |
| B12 | – | – | 1.5 | 0.67 | 16.1 | 0.00527 | 326000 | 2.52 | 0.000722 | 286000 | 0.023 | 0.0154 | 2.63 | 6.4 | – | – | – |
| B13 | – | – | 13.5 | 0.07 | 150 | 0.0254 | 170000 | 8.69 | 0.00226 | 261000 | 0.221 | 0.0164 | 23.2 | 17.2 | – | – | – |
| B14 | 0.484 | 0.628 | – | – | – | – | – | – | – | – | – | – | – | – | 2.4 | 87.8 | 36.9 |
| B15 | 3.73 | 0.811 | – | – | – | – | – | – | – | – | – | – | – | – | – | – | – |
| B16 | 5.18 | 1.1 | – | – | – | – | – | – | – | – | – | – | – | – | – | – | – |
| B17 | 23 | 15.5 | – | – | – | – | – | – | – | – | – | – | – | – | – | – | – |
| B18 | 15.2 | 4.41 | – | – | – | – | – | – | – | – | – | – | – | – | – | – | – |
